The values below come from patent publication US7507538B2, “Human papilloma virus immunoreactive peptides” (priority 2001, dated 2009).

For assay [1], the system named is autologous PBMC pulsed with HPV-16E6 or HPV-18E6 peptides. The assay is described as follows: 51Cr release lysis of peptide-pulsed autologous PBMC by lymphocytes stimulated in vitro with peptide. The assay is classed as cell-based, human. The settings on record: lymphocytes of an HLA-A2 patient, peptide at 10 μm for 1-3 weeks, FIG. 2. Here is the method: To determine if lymphocytes stimulated in vitro with either the HPV-18E6 peptide (SEQ ID NO. 1) or the HPV-16E6 peptide (SEQ ID NO. 10) would recognize and lyse peripheral blood mononuclear cells (PBMCs) pulsed with these peptides, the following experiment was performed. Lymphocytes isolated from a patient known to carry and express the HLA-A2 allele were stimulated in vitro (IVS) with either the HPV-18E6 peptide (SEQ ID NO. 1) or the HPV-16E6 peptide (SEQ ID NO. 10) at a 10 μm concentration for 1-3 weeks. Autologous PBMC target cells were radiolabeled with ^51Cr and pulsed with either the HPV-18E6 peptide (SEQ ID NO. 1) or the HPV-16E6 peptide (SEQ ID NO. 10). Each of the IVS lymphocyte populations were then mixed with each of the pulsed and labeled PBMC target cells and specific lysis was measured. Lymphocytes IVS with either the HPV-18E6 peptide (SEQ ID NO. 1) or the HPV-16E6 peptide (SEQ ID NO. 10) were able to lyse PBMCs which were pulsed with either the HPV-18E6 peptide (SEQ ID NO. 1) or the HPV-16E6 peptide (SEQ ID NO. 10) and had either the HPV-18E6 peptide (SEQ ID NO. 1) or the HPV-16E6 (SEQ ID NO. 10) peptide on their cell surface.
T cell cytotoxicity is measured by the standard ^51Cr-release assay. Briefly, target cells are radiolabeled with Na2 ^51CrO4. The patient's PBMC (which have been previously stimulated with an HPV peptide of Example 1 at 10 μm concentration for 1 to 3 weeks) are added to the labeled target cells in the presence or absence of the peptide. Cell lysis is determined by the specific release of ^51Cr (specific lysis). Target cells are autologous B-LCL or T2 cells pulsed with the peptide. If there is a detectable pre-immunization specific lysis, a 2.0 fold increase in the lytic units will be considered a positive response. If there is no detectable pre-immunization specific lysis, a post-immunization specific lysis of […] 10% above the controls will be considered a positive response.

Assay [2] addresses T1, HLA-A2 molecule (Homo sapiens, UniProt P04439, D140Y/D185E/D98H/E176V/E277Q/G131W/G231S/I119V/I121R/I166T/I218V/L300P/L318F/N151K/N90K/P208A/P217A/Q86G/Q94H/R138H/R169H/T345S).
T1 construct: endogenous in cells; host or cells: T2A2 cells
The assay can be described thus: Binding of fluorescently labeled peptide to T2A2 cells. The settings on record: for affinity for HLA-A2 relative to the other peptides tested / binding to the HLA-A2 molecules on the surface of T2A2 cells: FIG. 1; for binding to the HLA-A2 molecules on the surface of T2A2 cells: fluorescently labeled peptide.

Entries after “also recorded” stand apart in the source; their conditions may differ.

For the sequence KLPDLCTEL, the entries for the “specific lysis of autologous PBMC pulsed with either HPV-18E6 or HPV-16E6 peptide by lymphocytes stimulated in vitro with the peptide” value in assay [1] (listed as HPV-18E6 peptide) and in assay [1] (listed as HPV-18E6 peptides) were “able to lyse; also recorded: able to elicit an immune response” and “specifically lyse”, respectively. For the same sequence, the “fold higher affinity for the HLA-A2 molecule than the homologous HPV-16E6 peptide KLPQLCTEL” value in assay [2] (T2A2 cells) is “approximately 100 fold”. Moreover, the “affinity for HLA-A2 relative to the other peptides tested” value in assay [2] (T2A2 cells) is reported as “higher affinity than did either the FMP peptide or the homologous peptide from the HPV-16E6 protein”; in assay [2] (T2A2 cells, listed as HPV-18E6 (13-21) peptide) it was “higher than the homologous HPV-16E6 peptide”. Moreover, the entries for the “binding to the HLA-A2 molecules on the surface of T2A2 cells” value in assay [2], in assay [2] (listed as HPV-18E6 (13-21) peptide) and in assay [2] (listed as HPV-18E6 peptide) were “bound”, “high affinity” and “able to bind”, respectively.
As for “KLPQLCTEL [homologous peptide from the HPV-16E6 protein (amino acids 13-21), reference compound]”, the “specific lysis of autologous PBMC pulsed with either HPV-18E6 or HPV-16E6 peptide by lymphocytes stimulated in vitro with the peptide” value in assay [1] (listed as HPV-16E6 peptide) is listed as “able to lyse”; in assay [1] (listed as HPV-16E6 peptides), “lyse”.
